From patent US20030145347A1

Columns and labels:
Assay in all cases: cell-based or functional assay
[1] = target: wheat thioredoxin with S-tag (recombinant, expressed in E. coli from pNOV4114) (wheat (T. aestivium [sic]))
[2] = target: soybean thioredoxin as labelled in the 4th table (with or without S-tag not told) (soybean)
[3] = target: rice thioredoxin with S-tag (recombinant, expressed in E. coli from pNOV4113) (rice)

Sequence of E. coli thioredoxin reductase (T-7915, Sigma, St. Louis, Mo.) (P0A9P4 2-321 limits assumed): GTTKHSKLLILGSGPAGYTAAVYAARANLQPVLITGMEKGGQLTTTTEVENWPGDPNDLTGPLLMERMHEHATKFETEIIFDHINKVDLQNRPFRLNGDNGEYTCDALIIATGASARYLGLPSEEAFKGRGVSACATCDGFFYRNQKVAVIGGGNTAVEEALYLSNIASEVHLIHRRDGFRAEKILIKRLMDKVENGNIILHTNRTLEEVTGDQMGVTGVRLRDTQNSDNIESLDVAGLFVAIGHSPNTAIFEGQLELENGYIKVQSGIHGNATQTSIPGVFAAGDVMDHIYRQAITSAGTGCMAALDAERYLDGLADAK

change in A412 over 4 min, NADPH thioredoxin reductase DTNB assay; 30 ul (about 0.6 ug) wheat thioredoxin, 1.5 ul (0.5 ug) Arabidopsis reductase [1] [A412]	change in A412 over 4 min, NADPH thioredoxin reductase DTNB assay; 30 ul (about 1.2 ug) wheat thioredoxin, 1.5 ul (0.5 ug) Arabidopsis reductase [1] [A412]	change in A412 over 4 min, NADPH thioredoxin reductase DTNB assay; 30 ul (about 12 ug) soybean thioredoxin, 1.5 ul (about 0.5 ug) Arabidopsis reductase [2] [A412]	change in A412 over 4 min, NADPH thioredoxin reductase DTNB assay; 30 ul (about 15 ug) rice thioredoxin, 1.5 ul (about 0.5 ug) Arabidopsis reductase [3] [A412]	change in A412 over 4 min, NADPH thioredoxin reductase DTNB assay; 30 ul (about 0.6 ug) wheat thioredoxin, 2.3 ug E. coli reductase [1] [A412]	change in A412 over 4 min, NADPH thioredoxin reductase DTNB assay; 30 ul (about 6 ug) soybean thioredoxin, 2.3 ug E. coli reductase [2] [A412]	change in A412 over 4 min, NADPH thioredoxin reductase DTNB assay; 30 ul (about 12 ug) soybean thioredoxin, 2.3 ug E. coli reductase [2] [A412]	change in A412 over 4 min, NADPH thioredoxin reductase DTNB assay; 30 ul (about 15 ug) rice thioredoxin, 2.3 ug E. coli reductase [3] [A412]	Substance
0.08	0.08	0.42	0.66					Arabidopsis NADPH thioredoxin reductase without S-tag (recombinant, expressed in E. coli from pNOV4115) (from UniProt Q39243 43-375) (enzyme)
				0.3	0.2	0.333	0.3	E. coli thioredoxin reductase (T-7915, Sigma, St. Louis, Mo.) (from UniProt P0A9P4 2-321) (enzyme)
